The values below come from FireProtDB.

Where “and” joins values, the source holds several entries; their conditions need not be identical. Identical values can stand only once.

The conditions of this series: whole UniProt chain shown; for denaturant m value: Potassium phosphate 10 mM.
The mark [1] stands for this setting: Streptococcus phage Cp-1, pH 7, Thermal, DSC, phosphate 20 mM, reversible: no.
Where [2] appears, read: Streptococcus phage Cp-1, pH 7, Thermal, DSC, phosphate 20 mM, transition: 3, reversible: no.
The mark [3] stands for this setting: Sus scrofa, pH 6.5, Thermal, DSC, Sodium phosphate 5 mM, reversible: yes.
The mark [4] stands for this setting: Thermotoga maritima (strain ATCC 43589 / DSM 3109 / JCM 10099 / NBRC 100826 / MSB8), pH 6, 29 °C, Thermal, CD, sodium phosphate 50 mM, reversible: yes.

B1: Lysozyme wild type, P15057 (protein)
chain: MVKKNDLFVDVSSHNGYDITGILEQMGTTNTIIKISESTTYLNPCLSAQVEQSNPIGFYHFARFGGDVAEAEREAQFFLDNVPMQVKYLVLDYEDDPSGDAQANTNACLRFMQMIADAGYKPIYYSYKPFTHDNVDYQQILAQFPNSLWIAGYGLNDGTANFEYFPSMDGIRWWQYSSNPFDKNIVLLDDEEDDKPKTAGTWKQDSKGWWFRRNNGSFPYNKWEKIGGVWYYFDSKGYCLTSEWLKDNEKWYYLKDNGAMATGWVLVGSEWYYMDDSGAMVTGWVKYKNNWYYMTNERGNMVSNEFIKSGKGWYFMNTNGELADNPSFTKEPDGLITVA
As for B1, under setting [1], the Tm (in general, the temperature at which the thermal transition is half complete) is 42.9 °C; the “unfolding enthalpy (calorimetric)” value was found to be 109 kcal/mol; the “unfolding enthalpy (van 't Hoff)” value worked out at 232 kcal/mol. Also, under setting [2], the Tm amounted to 43.5 °C, the “unfolding enthalpy (calorimetric)” value was 143 kcal/mol and the “unfolding enthalpy (van 't Hoff)” value was 100 kcal/mol.

B2: Glutathione S-transferase P wild type, P80031 (protein)
chain: PPYTITYFPVRGRCEAMRMLLADQDQSWKEEVVTMETWPPLKPSCLFRQLPKFQDGDLTLYQSNAILRHLGRSFGLYGKDQKEAALVDMVNDGVEDLRCKYATLIYTNYEAGKEKYVKELPEHLKPFETLLSQNQGGQAFVVGSQISFADYNLLDLLRIHQVLNPSCLDAFPLLSAYVARLSARPKIKAFLASPEHVNRPINGNGKN
Turning to B2, the unfolding free energy (Sus scrofa, pH 6.5, 20 °C, GdnHCl, CD, Mes-NaOH 20 mM, NaCl 0.1 M) was 11.6 kcal/mol and 22.5 kcal/mol.

B3: Tryptophan synthase alpha chain wild type, P00929 (protein)
chain: MERYENLFAQLNDRREGAFVPFVTLGDPGIEQSLKIIDTLIDAGADALELGVPFSDPLADGPTIQNANLRAFAAGVTPAQCFEMLALIREKHPTIPIGLLMYANLVFNNGIDAFYARCEQVGVDSVLVADVPVEESAPFRQAALRHNIAPIFICPPNADDDLLRQVASYGRGYTYLLSRSGVTGAENRGALPLHHLIEKLKEYHAAPALQGFGISSPEQVSAAVRAGAAGAISGSAIVKIIEKNLASPKQMLAELRSFVSAMKAASRA
As for B3, the unfolding free energy (Salmonella typhimurium (strain LT2 / SGSC1412 / ATCC 700720), pH 7, 25 °C, GdnHCl, CD, Potassium phosphate 0.01 M, reversible: yes) was 9.7 kcal/mol. Moreover, the Tm is 46 °C (Salmonella typhimurium (strain LT2 / SGSC1412 / ATCC 700720), pH 7.8, Thermal, Enzyme activity, sodium N/N-bis(2-hydroxyethyl)glycine 0.05 M) and 47.6 °C (Salmonella typhimurium (strain LT2 / SGSC1412 / ATCC 700720), pH 9, Thermal, DSC, Sodium tetraborate 1 mM, reversible: yes(>70%)).

B4: Dihydrofolate reductase wild type, Q60034 (protein)
chain: MAKVIFVLAMDVSGKIASSVESWSSFEDRKNFRKITTEIGNVVMGRITFEEIGRPLPERLNVVLTRRPKTSNNPSLVFFNGSPADVVKFLEGKGYERVAVIGGKTVFTEFLREKLVDELFVTVEPYVFGKGIPFFDEFEGYFPLKLLEMRRLNERGTLFLKYSVEKSHR
Regarding B4, the denaturant m value runs as follows: (Thermotoga maritima (strain ATCC 43589 / DSM 3109 / JCM 10099 / NBRC 100826 / MSB8), pH 7.8, 5 °C, GdnHCl, CD, reversible: yes) 13.2 kcal/mol/M; (Thermotoga maritima (strain ATCC 43589 / DSM 3109 / JCM 10099 / NBRC 100826 / MSB8), pH 7.8, 15 °C, GdnHCl, CD, reversible: yes) 9.4 kcal/mol/M; (Thermotoga maritima (strain ATCC 43589 / DSM 3109 / JCM 10099 / NBRC 100826 / MSB8), pH 7.8, 15 °C, Urea, CD, reversible: yes) 4.71 kcal/mol/M; (Thermotoga maritima (strain ATCC 43589 / DSM 3109 / JCM 10099 / NBRC 100826 / MSB8), pH 7.8, 25 °C, GdnHCl, CD, reversible: yes) 7.15 kcal/mol/M; (Thermotoga maritima (strain ATCC 43589 / DSM 3109 / JCM 10099 / NBRC 100826 / MSB8), pH 7.8, 37 °C, GdnHCl, CD, reversible: yes) 5.98 kcal/mol/M; (Thermotoga maritima (strain ATCC 43589 / DSM 3109 / JCM 10099 / NBRC 100826 / MSB8), pH 7.8, 55 °C, GdnHCl, CD, reversible: yes) 6.24 kcal/mol/M. Further, the denaturant m value (Thermotoga maritima (strain ATCC 43589 / DSM 3109 / JCM 10099 / NBRC 100826 / MSB8), pH 7.8, 70 °C, GdnHCl, CD, reversible: yes) is 7.56 kcal/mol/M.

B5: Inorganic pyrophosphatase wild type, P38576 (protein)
chain: MANLKSLPVGDKAPEVVHMVIEVPRGSGNKYEYDPDLGAIKLDRVLPGAQFYPGDYGFIPSTLAEDGDPLDGLVLSTYPLLPGVVVEVRVVGLLLMEDEKGGDAKVIGVVAEDQRLDHIQDIGDVPEGVKQEIQHFFETYKALEAKKGKWVKVTGWRDRKAALEEVRACIARYKG
B5: the Tm (Thermus thermophilus (strain ATCC 27634 / DSM 579 / HB8), pH 7, Thermal, CD, HEPES 20 mM, MgCl2 5 mM) is 99 °C and the Tm (Thermus thermophilus (strain ATCC 27634 / DSM 579 / HB8), pH 7, Thermal, CD, HEPES 20 mM) is 86 °C.

B6: Gastricsin wild type, P30879 (protein)
chain: SVIKVPLKKLKSIRQAMKEKGLLEEFLKTHKYDPAQRYRIGDISVALEPMAYLEAAYFGEISIGTPPQNFLVL
Regarding B6, under setting [3], the Tm turned out to be 64.5 °C, the “heat capacity change of unfolding” value came to 6.1 kcal/mol/K, the “unfolding enthalpy (calorimetric)” value was determined as 256 kcal/mol and the “unfolding enthalpy (van 't Hoff)” value is 131 kcal/mol.

B7: Malate dehydrogenase, cytoplasmic wild type, P11708 (protein)
chain: MSEPIRVLVTGAAGQIAYSLLYSIGNGSVFGKDQPIILVLLDITPMMGVLDGVLMELQDCALPLLKDVIATDKEEIAFKDLDVAILVGSMPRRDGMERKDLLKANVKIFKCQGAALDKYAKKSVKVIVVGNPANTNCLTASKSAPSIPKENFSCLTRLDHNRAKAQIALKLGVTSDDVKNVIIWGNHSSTQYPDVNHAKVKLQAKEVGVYEAVKDDSWLKGEFITTVQQRGAAVIKARKLSSAMSAAKAICDHVRDIWFGTPEGEFVSMGIISDGNSYGVPDDLLYSFPVTIKDKTWKIVEGLPINDFSREKMDLTAKELAEEKETAFEFLSSA
Take B7: where the note is “Sus scrofa, pH 7.5, 25 °C, GdnHCl, Fluorescence, TEA 50 mM, MgCl2 20 mM, transition: 3”, the unfolding free energy was 5.9 kcal/mol and 6.4 kcal/mol.

B8: Elongation factor Ts wild type, P43895 (protein)
chain: MSQMELIKKLREATGAGMMDVKRALEDAGWDEEKAVQLLRERGAMKAAKKADREAREGIIGHYIHHNQRVGVLVELNCETDFVARNELFQNLAKDLAMHIAMMNPRYVSAEEIPAEELEKERQIYIQAALNEGKPQQIAEKIAEGRLKKYLEEVVLLEQPFVKDDKVKVKELIQQAIAKIGENIVVRRFCRFELGA
As to B8, the midpoint of thermal melting (Tm) (Thermus thermophilus (strain ATCC 27634 / DSM 579 / HB8), pH 7, Thermal, CD, Phosphate 10 mM, reversible: No) stood at 115 °C.

B9: Chemotaxis protein CheY wild type, Q56312 (protein)
chain: MGKRVLIVDDAAFMRMMLKDIITKAGYEVAGEATNGREAVEKYKELKPDIVTMDITMPEMNGIDAIKEIMKIDPNAKIIVCSAMGQQAMVIEAIKAGAKDFIVKPFQPSRVVEALNKVSK
Consider B9, for which, under setting [4], the “heat capacity change of unfolding” value was 1.17 kcal/mol/K and the unfolding free energy came to 9.54 kcal/mol. In addition, the Tm (Thermotoga maritima (strain ATCC 43589 / DSM 3109 / JCM 10099 / NBRC 100826 / MSB8), pH 6, Thermal, CD, sodium phosphate 50 mM, reversible: yes) stood at 101 °C.
